Results on 1 protein are retold here after publication PMC4841217, “Structure and stability of recombinant bovine odorant-binding protein: III. Peculiarities of the wild type bOBP unfolding in crowded milieu” (PeerJ, 2016).

The series concerns the molecule itself. The experiment in a line: intrinsic tryptophan fluorescence (parameter A, fluorescence anisotropy r) with GdnHCl unfolding-refolding curves; recombinant bOBP 0.1-0.2 mg/mL in 20 mM Na-phosphate pH 7.8 with PEG-600, PEG-4000 or PEG-12000 at 80, 150 or 300 mg/mL; incubated at 4 °C, measured at 23 °C; monomer to dimer, inferred from raised anisotropy and sigmoidal unfolding curves.

B1: recombinant bovine odorant-binding protein (natural protein)
chain: AQEEEAEQNLSELSGPWRTVYIGSTNPEKIQENGPFRTYFRELVFDDEKGTVDFYFSVKRDGKWKNVHVKATKQDDGTYVADYEGQNVFKIVSLSRTHLVAHNINVDKHGQTTELTELFVKLNVEDEDLEKFWKLTEDKGIDKKNVVNFLENEDHPHPE
notes: Written as the single chain that associates with itself into the domain-swapped dimer; also called bOBP; recombinant bOBP; source: E. coli BL21(DE3), purified (Ni+-agarose, HisGraviTrap columns)
Consider B1, for which the binding result is “binds”.
